From patent US20090311283A1
Where two headings read alike, the source gives them in different places.

Columns and labels:
HLA-B*0702 (human) = experiment: competition with 125I-labelled probe peptide for purified HLA, gel filtration
HLA-B*3501 (human) = experiment: as above
HLA-B*5301 (human) = experiment: as above
HLA-B*5401 (human) = experiment: as above
HLA-A*3101 (human) [1] = molecular target: HLA-A*3101 (human)
HLA-A*3301 (human) [2] = molecular target: HLA-A*3301 (human)
HLA-A*6801 (human) [3] = molecular target: HLA-A*6801 (human)
[4] = molecular target: HLA-DR5w11 (DRB1*1101) (human)
[5] = molecular target: HLA-DR7 (DRB1*0701) (human)
[6] = molecular target: T1, HLA-DR1 (DRB1*0101) (human); experiment: 125I-probe competition on purified DR1; ratio vs standard 515.01 (IC50 5.0 nM)
T1 chain 1: not shown
T1 chain 2: not shown

[7] = molecular target: T2, HLA-DR4w4 (DRB1*0401) (human); experiment: 125I-probe competition on purified DR4w4; ratio vs standard 515.01 (IC50 45 nM)
T2 chain 1: not shown
T2 chain 2: not shown

[8] = molecular target: T3, HLA-DRw53 (DRB4*0101) (human); experiment: 125I-probe competition on purified DRw53; ratio vs standard 717.01 (IC50 58 nM)
T3 chain 1: not shown
T3 chain 2: not shown

HLA-DRB1*0101 (human) [9] = molecular target: T4, HLA-DRB1*0101 (human); experiment: inhibition of 125I-labelled probe peptide binding to purified HLA-DR; gel filtration; details: remark: other sources report otherwise
T4 chain 1: not shown
T4 chain 2: not shown

HLA-DRB1*0401 (human) [10] = molecular target: T5, HLA-DRB1*0401 (human); experiment: as above; details: remark: other sources report otherwise
T5 chain 1: not shown
T5 chain 2: not shown

HLA-DRB1*0701 (human) [11] = molecular target: T6, HLA-DRB1*0701 (human); experiment: as above; details: remark: other sources report otherwise
T6 chain 1: not shown
T6 chain 2: not shown

HLA-DRB1*1101 (human) = molecular target: T7, HLA-DRB1*1101 (human); experiment: as above; details: remark: other sources report otherwise
T7 chain 1: not shown
T7 chain 2: not shown

HLA-DRB4*0101 (human) = molecular target: T8, HLA-DRB4*0101 (human); experiment: as above; details: remark: other sources report otherwise
T8 chain 1: not shown
T8 chain 2: not shown

HLA-DRB5*0101 (human) = molecular target: T9, HLA-DRB5*0101 (human); experiment: as above; details: remark: other sources report otherwise
T9 chain 1: not shown
T9 chain 2: not shown

HLA-A*0101 (Human) [12] = experiment: competition with 125I-labelled probe peptide for purified HLA-A*0101, gel filtration
HLA-A*3101 (human) [13] = experiment: competitive inhibition of 125I-labelled probe peptide binding to purified HLA; relative to standard peptide
HLA-A*3301 (human) [14] = experiment: as above
HLA-A*6801 (human) [15] = experiment: as above
HLA-DRB1*0101 (human) [16] = molecular target: T4, HLA-DRB1*0101 (human)
HLA-DRB1*0401 (human) [17] = molecular target: T5, HLA-DRB1*0401 (human)
HLA-DRB1*0701 (human) [18] = molecular target: T6, HLA-DRB1*0701 (human)
[19] = molecular target: T10, HLA-DR4w15 (DRB1*0405) (human); experiment: 125I-probe competition on purified DR4w15; ratio vs standard 717.01 (IC50 38 nM)
T10 chain 1: not shown
T10 chain 2: not shown

HLA-A*0101 (Human) [20] = details: remark: other sources report otherwise
HLA-DRB1*0901 (human) = molecular target: T11, HLA-DRB1*0901 (human); experiment: inhibition of 125I-labelled probe peptide binding to purified HLA-DR; gel filtration; details: remark: other sources report otherwise
T11 chain 1: not shown
T11 chain 2: not shown

HLA-DRB1*1302 (human) = molecular target: T12, HLA-DRB1*1302 (human); experiment: as above; details: remark: other sources report otherwise
T12 chain 1: not shown
T12 chain 2: not shown

HLA-DRB1*1501 (human) = molecular target: T13, HLA-DRB1*1501 (human); experiment: as above; details: remark: other sources report otherwise
T13 chain 1: not shown
T13 chain 2: not shown

Binder IPWTHKVGNF (modifications not checked) [HBV POL 50 …] has a binding affinity ratio (IC50 standard peptide / IC50 test peptide) (HLA-B*0702 (human)) of 0.0013, a binding affinity ratio (IC50 standard peptide / IC50 test peptide) (HLA-B*3501 (human)) of 0.0001 and a binding affinity ratio (IC50 standard peptide / IC50 test peptide) (HLA-B*5301 (human)) of 0.0001. The binding affinity ratio (IC50 standard peptide / IC50 test peptide) (HLA-B*5401 (human)) was 0.0002.

Work on RSPRRRTPSPR (modifications not checked) [HBV NUC 183 peptide …] yielded a binding affinity ratio (IC50 of standard peptide / IC50 of test peptide) (HLA-A*0301 (human)) of -0.0007, a binding affinity ratio (IC50 of standard peptide / IC50 of test peptide) (HLA-A*1101 (human)) of -0.0003 and a binding affinity ratio (IC50 of standard peptide / IC50 of test peptide) (HLA-A*3101 (human) [1]) of 0.019. It also gave a binding affinity ratio (IC50 of standard peptide / IC50 of test peptide) (HLA-A*3301 (human) [2]) of -0.0023 and a binding affinity ratio (IC50 of standard peptide / IC50 of test peptide) (HLA-A*6801 (human) [3]) of 0.0003.

WPKFAVPNLQSLTNL (modifications not checked) showed a binding affinity ratio (standard IC50 / test IC50) [4] of 0.0002, a binding affinity ratio (standard IC50 / test IC50) [5] of 0.0008 and a binding affinity ratio (standard IC50 / test IC50) [6] of 0.0007. For the same binder, the binding affinity ratio (standard IC50 / test IC50) [7] was 0.0023 and the binding affinity ratio (standard IC50 / test IC50) [8] was 0.018.

For IVGLLGFAAPFTQCG (modifications not checked) [… (HBV POL 625, 15-mer)], the binding affinity ratio (IC50 of standard peptide / IC50 of test peptide) (HLA-DRB1*0101 (human) [9]) was 0.02, the binding affinity ratio (IC50 of standard peptide / IC50 of test peptide) (HLA-DRB1*0401 (human) [10]) was -0.0007 and the binding affinity ratio (IC50 of standard peptide / IC50 of test peptide) (HLA-DRB1*0701 (human) [11]) was 0.0009. It also gave a binding affinity ratio (IC50 of standard peptide / IC50 of test peptide) (HLA-DRB1*1101 (human)) of -0.0002, a binding affinity ratio (IC50 of standard peptide / IC50 of test peptide) (HLA-DRB4*0101 (human)) of 0.0067 and a binding affinity ratio (IC50 of standard peptide / IC50 of test peptide) (HLA-DRB5*0101 (human)) of -0.0005.

PLDKGIKPY (modifications not checked) [HBV POL 124 …] was tested, and the binding affinity ratio (IC50 of standard peptide / IC50 of test peptide) (HLA-A*0101 (Human) [12]) was 0.019.

ISCLTFGR (modifications not checked) [HBV NUC 105 peptide ISCLTFGR] gave a binding affinity ratio (IC50 of standard peptide / IC50 of test peptide) (HLA-A*3101 (human) [13]) of 0.0017, a binding affinity ratio (IC50 of standard peptide / IC50 of test peptide) (HLA-A*3301 (human) [14]) of -0.0009 and a binding affinity ratio (IC50 of standard peptide / IC50 of test peptide) (HLA-A*6801 (human) [15]) of 0.0017.

DLNLGNLNVSIPWTH (modifications not checked) [… (HBV POL 40, 15-mer)] showed a binding affinity ratio (IC50 of standard peptide / IC50 of test peptide) (HLA-DRB1*0101 (human) [16]) of 0.0038, a binding affinity ratio (IC50 of standard peptide / IC50 of test peptide) (HLA-DRB1*0401 (human) [17]) of 0.024 and a binding affinity ratio (IC50 of standard peptide / IC50 of test peptide) (HLA-DRB1*0701 (human) [18]) of 0.001.

Work on CQVFADATPTGWGLA (modifications not checked) yielded a binding affinity ratio (standard IC50 / test IC50) [19] of 0.28.

For ILRGTSFVY (modifications not checked) [HBV POL 760 peptide …], the binding affinity ratio (IC50 of the standard peptide / IC50 of the test peptide) (HLA-A*0101 (Human) [20]) was 0.0017.

VGLLGFAAPFTQCGY (modifications not checked) [… (HBV POL 626, 15-mer)] was tested, and the binding affinity ratio (IC50 of standard peptide / IC50 of test peptide) (HLA-DRB1*0101 (human) [9]) was 0.047, the binding affinity ratio (IC50 of standard peptide / IC50 of test peptide) (HLA-DRB1*0401 (human) [10]) was -0.0014 and the binding affinity ratio (IC50 of standard peptide / IC50 of test peptide) (HLA-DRB1*0701 (human) [11]) was 0.0014. It also gave a binding affinity ratio (IC50 of standard peptide / IC50 of test peptide) (HLA-DRB1*0901 (human)) of 0.57, a binding affinity ratio (IC50 of standard peptide / IC50 of test peptide) (HLA-DRB1*1101 (human)) of -0.0004 and a binding affinity ratio (IC50 of standard peptide / IC50 of test peptide) (HLA-DRB1*1302 (human)) of -0.0001. For the same binder, the binding affinity ratio (IC50 of standard peptide / IC50 of test peptide) (HLA-DRB1*1501 (human)) was 0.31 and the binding affinity ratio (IC50 of standard peptide / IC50 of test peptide) (HLA-DRB5*0101 (human)) was 0.0008.
